According to the supplement of paper PMC10724198:
± gives the standard deviation of the averaged measurements.
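Note: PSI is a weighted mean of sequencing reads over stability bins, variants kept only with over 10 reads, mCherry proximal and sfGFP distal, peptide attached via GGGS linker.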

The sequences below were run on Saccharomyces cerevisiae (assay: protein stability index of tFT-peptide fusion (C-terminal peptide) (PSI (0-1 scale)); higher = more stable (slower turnover)). Conditions: genetic background: wild type; temperature: 30 C.
PPRPPCSPLPPR was tested, and the protein stability index was 0.678 ± 0.052. With PPRPPPPPAHPP the protein stability index was 0.557 ± 0.029. PPRPPPPPSPPL gave a protein stability index of 0.745 ± 0.027. With PPRPPPSSPHLV the protein stability index was 0.698 ± 0.023. PPRPPRPPPRTP was tested, and the protein stability index was 0.694 ± 0.022. For PPRPPSPAPPPP, the protein stability index was 0.687 ± 0.042. Work on PPRPRRPLHRSS yielded a protein stability index of 0.664 ± 0.011. PPRQPFPPILPS showed a protein stability index of 0.677 ± 0.046. PPRQPLSLLLPL gave a protein stability index of 0.6468 ± 0.0016. PPRRPPRPPPPA showed a protein stability index of 0.701 ± 0.064. In the case of PPRRSSLSPPLA, the protein stability index is reported as 0.6562 ± 0.0027. PPRSHKPPQMQT showed a protein stability index of 0.663 ± 0.0082. For PPRSPRPPPSRP, the protein stability index was 0.72 ± 0.1. PPRTMTLSAPLT showed a protein stability index of 0.708 ± 0.02. PPSALPHPPLPP showed a protein stability index of 0.718 ± 0.028. Work on PPSARLPPPPPR yielded a protein stability index of 0.789 ± 0.12. PPSHIPASGTKR showed a protein stability index of 0.716 ± 0.041. PPSHPLTIRPPL gave a protein stability index of 0.663 ± 0.014. PPSIEAAQPPYF gave a protein stability index of 0.681 ± 0.015. Work on PPSLFSSTQLLF yielded a protein stability index of 0.7095 ± 0.0067. For PPSLPLPAPPPP, the protein stability index was 0.66 ± 0.063. Work on PPSLPPPSPAPL yielded a protein stability index of 0.682 ± 0.03. Sequence PPSLPPRPRPPS has a protein stability index of 0.6411 ± 0.0049. Work on PPSPAFTTHLPP yielded a protein stability index of 0.576 ± 0.0064. PPSPALPPSLPV was tested, and the protein stability index was 0.682 ± 0.032. With PPSPAPSPPRPL the protein stability index was 0.702 ± 0.021. PPSPHHPPPPAL was tested, and the protein stability index was 0.753 ± 0.0082. For PPSPPPARPSPA, the protein stability index was 0.667 ± 0.041. Sequence PPSPPPPPAHPP has a protein stability index of 0.597 ± 0.01. Sequence PPSPPPPPPPPP has a protein stability index of 0.6847 ± 0.0032. For PPSPPPPPRPPP, the protein stability index was 0.583 ± 0.019. Sequence PPSPPPPTGLCL has a protein stability index of 0.745 ± 0.078. For PPSPRHPAPQPR, the protein stability index was 0.679 ± 0.026. Sequence PPSPRPPPPSPS has a protein stability index of 0.719 ± 0.1. In the case of PPSPSLPPPPRS, the protein stability index is reported as 0.699 ± 0.055. For PPSRTPFLPPFR, the protein stability index was 0.691 ± 0.032. PPSSPPFLPSRP was tested, and the protein stability index was 0.677 ± 0.031. PPSSPPPPLPPS gave a protein stability index of 0.712 ± 0.035. PPSVILTSASSR gave a protein stability index of 0.721 ± 0.011. With PPTHLLRTHPPA the protein stability index was 0.68368 ± 0.00032. With PPTLPPPRTLPL the protein stability index was 0.6984 ± 0.0052. PPTPPPPSLTPP gave a protein stability index of 0.746 ± 0.027. With PPTPPRLHRSPP the protein stability index was 0.69 ± 0.11. In the case of PPTPPRPPPRTT, the protein stability index is reported as 0.69 ± 0.028. In the case of PPTPRALFPPLP, the protein stability index is reported as 0.745 ± 0.049. With PPTTPHPTPTAP the protein stability index was 0.689 ± 0.033. For PPVPPPDLCSAL, the protein stability index was 0.653 ± 0.068. PPVSPPSPRLPL was tested, and the protein stability index was 0.7329 ± 0.0049. Sequence PPYAPPDHPPFR has a protein stability index of 0.699 ± 0.03. For PPYDSSYGILLR, the protein stability index was 0.7666 ± 0.0053. For PPYIMCPFTPGG, the protein stability index was 0.632 ± 0.024. With PPYPPPHASPAP the protein stability index was 0.693 ± 0.039. PPYPPPRPKPPR was tested, and the protein stability index was 0.699 ± 0.012. For PPYSPSPRDPFA, the protein stability index was 0.713 ± 0.047. Work on PQIIFVSRASYL yielded a protein stability index of 0.681 ± 0.015. PQPNSSEPTSQK showed a protein stability index of 0.722 ± 0.011. PQTAGTHRARVN showed a protein stability index of 0.698 ± 0.026. Work on PQTPQTSTQAPG yielded a protein stability index of 0.673 ± 0.01. PQVLSPPLSTSR was tested, and the protein stability index was 0.728 ± 0.008. PQYLPLLPSPSP gave a protein stability index of 0.632 ± 0.048. PRALLCLLSRPC showed a protein stability index of 0.722 ± 0.1. Work on PRAYPSNLPPSP yielded a protein stability index of 0.721 ± 0.037. With PRDLRVVRLTSA the protein stability index was 0.63 ± 0.022. PRDSRPLPAYSL was tested, and the protein stability index was 0.591 ± 0.028. PRFGPPQLPAKA showed a protein stability index of 0.754 ± 0.062. PRFPYGPFDFSI was tested, and the protein stability index was 0.669 ± 0.046. PRGALMKGYKPG was tested, and the protein stability index was 0.663 ± 0.1. Sequence PRGLGYHGALVL has a protein stability index of 0.571. PRGPPPPAPPPT gave a protein stability index of 0.689 ± 0.0075. For PRGRSRPRCVIR, the protein stability index was 0.684 ± 0.13. For PRIGRPQSLTFH, the protein stability index was 0.621 ± 0.011. With PRIPHPPRPRPP the protein stability index was 0.669 ± 0.024. With PRLGFFPFPSGP the protein stability index was 0.709 ± 0.03. Sequence PRLLPPLGFLTF has a protein stability index of 0.764 ± 0.075. Sequence PRLPLPPPPLPL has a protein stability index of 0.683 ± 0.026. With PRLPYPSLFPCT the protein stability index was 0.678 ± 0.056. Sequence PRPAAPSPPPLP has a protein stability index of 0.588 ± 0.014. PRPAQDAEPIQP was tested, and the protein stability index was 0.646 ± 0.098. Work on PRPGGHLFLVFS yielded a protein stability index of 0.679 ± 0.033. PRPKNQMAIYRE was tested, and the protein stability index was 0.708 ± 0.07. PRPLPLPPLALP gave a protein stability index of 0.696 ± 0.027. In the case of PRPLTPPAPPHP, the protein stability index is reported as 0.748 ± 0.041. In the case of PRPPNPRPPPPP, the protein stability index is reported as 0.729 ± 0.071. For PRPPPPPASVCR, the protein stability index was 0.6579 ± 0.00069. In the case of PRPPPRRPDFGL, the protein stability index is reported as 0.825 ± 0.16. For PRPRRSSLPFPP, the protein stability index was 0.818 ± 0.073. Work on PRPSPLSSLSVS yielded a protein stability index of 0.7206 ± 0.0064. With PRRFPFRHATSP the protein stability index was 0.635 ± 0.084. For PRRLAPPPPPSP, the protein stability index was 0.744 ± 0.012. PRRPHDPFPAAP gave a protein stability index of 0.686 ± 0.017. Work on PRRPPPLPPASF yielded a protein stability index of 0.713 ± 0.047. PRRSNPQPTHIR showed a protein stability index of 0.708 ± 0.038. For PRSLPLDHPAPC, the protein stability index was 0.709 ± 0.085. With PRSPLRYPPHCP the protein stability index was 0.691 ± 0.035. In the case of PRSPPPSSSTPD, the protein stability index is reported as 0.688 ± 0.036. With PRSPPRSLFFPC the protein stability index was 0.648 ± 0.047. With PRSRSGVAQGPE the protein stability index was 0.6607 ± 0.0039. With PRSSVLPPCPSL the protein stability index was 0.707 ± 0.025. Work on PRSTFLRRHLRV yielded a protein stability index of 0.6184 ± 0.0037. PRTGPLPPLTPL gave a protein stability index of 0.679 ± 0.016. With PRTSSPPRPFRF the protein stability index was 0.624 ± 0.022. Work on PRVLVVSAVNTV yielded a protein stability index of 0.695 ± 0.02. PRYAEFVGRFEV gave a protein stability index of 0.6508 ± 0.0064. Work on PSAFSPPARISL yielded a protein stability index of 0.761 ± 0.066. Work on PSAGSPAPLLHP yielded a protein stability index of 0.705 ± 0.064. In the case of PSALLGTCRCVQ, the protein stability index is reported as 0.706 ± 0.028. PSAPPPSPLGRT gave a protein stability index of 0.738 ± 0.059. PSAQPPPRPTRP showed a protein stability index of 0.6878 ± 0.0036. Sequence PSCLPPPAHLEL has a protein stability index of 0.705 ± 0.043. PSFLPPAPLGIS was tested, and the protein stability index was 0.741 ± 0.038. Work on PSFLSPCPPFLS yielded a protein stability index of 0.747 ± 0.039. For PSFRTGLPPSDP, the protein stability index was 0.681 ± 0.038. For PSGLVSPSCLGC, the protein stability index was 0.68 ± 0.022. PSGRRRWACARG was tested, and the protein stability index was 0.694 ± 0.0097. PSHLHERIRPAR was tested, and the protein stability index was 0.726 ± 0.16. In the case of PSHLNAPTTAPP, the protein stability index is reported as 0.701 ± 0.038. Work on PSHVFSDCIAPP yielded a protein stability index of 0.696 ± 0.011. With PSILRGVLSAPK the protein stability index was 0.695 ± 0.04. For PSKRKRATPSKR, the protein stability index was 0.647 ± 0.021. PSLCFLPPPPSP gave a protein stability index of 0.686 ± 0.0076. For PSLFHHWSVLSP, the protein stability index was 0.785 ± 0.1. Work on PSLHPLSPSPPA yielded a protein stability index of 0.686 ± 0.041. PSLHPNHLAPPP was tested, and the protein stability index was 0.622 ± 0.046. Work on PSLLLPPYSSAP yielded a protein stability index of 0.743 ± 0.021. With PSLPDSALRHSL the protein stability index was 0.70673 ± 9.8e-05. Sequence PSLPPPFPPLRP has a protein stability index of 0.7044 ± 0.0013. PSLPPPSPSPPP gave a protein stability index of 0.666 ± 0.05. PSLSPVEVPLSR was tested, and the protein stability index was 0.759 ± 0.046. PSLVGRVWLEFV was tested, and the protein stability index was 0.691 ± 0.061. Work on PSPALGPFLAYR yielded a protein stability index of 0.695 ± 0.0077. In the case of PSPAPRPFAPLP, the protein stability index is reported as 0.69 ± 0.01. For PSPASPPPPPLP, the protein stability index was 0.714 ± 0.2. For PSPLAPPPRLPV, the protein stability index was 0.733 ± 0.049. For PSPLFSGSFLFF, the protein stability index was 0.716 ± 0.029. For PSPLPLLPPPRP, the protein stability index was 0.645 ± 0.037. Work on PSPLPPPLPPPV yielded a protein stability index of 0.675 ± 0.043. For PSPLPSPLLTTL, the protein stability index was 0.6816 ± 0.0062. Sequence PSPPFPPPSPPP has a protein stability index of 0.687 ± 0.02. PSPPHLCPSPFA was tested, and the protein stability index was 0.7518 ± 0.0015. PSPPHPPIPTSP was tested, and the protein stability index was 0.696 ± 0.015. PSPPIPALSFST showed a protein stability index of 0.684 ± 0.03. PSPPLPHLLLLP showed a protein stability index of 0.6929 ± 0.0035. With PSPPPPPRSFLH the protein stability index was 0.649 ± 0.066. With PSPPPPSRLLPP the protein stability index was 0.689 ± 0.025. PSPPPSISIPPS gave a protein stability index of 0.73 ± 0.17. In the case of PSPPPSPPSPPS, the protein stability index is reported as 0.708 ± 0.02. With PSPPQLPAAPSP the protein stability index was 0.779 ± 0.086. For PSPPRPRLPTAV, the protein stability index was 0.67026 ± 0.00045. With PSPPRPSGVPVT the protein stability index was 0.674 ± 0.017. Work on PSPPVMSPEVAC yielded a protein stability index of 0.627 ± 0.038. For PSPQNIPDPISP, the protein stability index was 0.673 ± 0.04. For PSPRASLPRLPP, the protein stability index was 0.597 ± 0.074. Sequence PSPRPFPPPLPP has a protein stability index of 0.6262 ± 0.0022. For PSPRPSPRPSPR, the protein stability index was 0.692 ± 0.062. PSPSAGPAPTPL showed a protein stability index of 0.65 ± 0.084. In the case of PSPSWYGRRLLG, the protein stability index is reported as 0.659 ± 0.027. PSPTPPPPRSPS gave a protein stability index of 0.721 ± 0.029. PSQTTRSPPPPP showed a protein stability index of 0.708 ± 0.015. PSQWLPSRSRTA was tested, and the protein stability index was 0.733 ± 0.052. In the case of PSRLAPPSPSIP, the protein stability index is reported as 0.694 ± 0.051.
